What was measured:
[1] = biological target: A. thaliana Z-B dimer (AtH2A.Z/AtH2B dimer) (Arabidopsis thaliana); test: ITC; AtChz1b (253-463) with A. thaliana histone dimers in 0.25 M NaCl
[2] = biological target: A. thaliana Z-B dimer (AtH2A.Z/AtH2B dimer) (Arabidopsis thaliana); test: ITC; AtChz1b (253-463) with A. thaliana histone dimers in 0.1 M NaCl
[3] = biological target: single chain H2A-H2B with H2A P50A/N91G (yeast); test: ITC; 0.2 M NaCl (Table 1); Swc2-Z or Chz1-M injected into single-chain histone dimers; otherwise as the ITC methods (25°C, 20 mM MES pH 6.0)
[4] = biological target: yeast single chain H2A-H2B (yeast); test: as above
[5] = biological target: single-chain H2A.Z-H2B with H2A.Z A57P/G98N (yeast); test: as above
[6] = biological target: yeast single-chain H2A.Z-H2B (yeast); test: as above

Substance	Kd [1]	Kd [2]	Kd [3]	stoichiometry N [3]	stoichiometry N [4]	Kd [5]	stoichiometry N [5]	Kd [6]	stoichiometry N [6]
AtChz1b (residues 253–463) (domain or fragment)	19900 nM	50 nM	–	–	–	–	–	–	–
Swc2-Z, the 1–136 segment of the Swc2 subunit of the SWR1 complex (domain or fragment)	–	–	170 nM	1 sites	0.9 sites	40 nM	0.8 sites	40 nM	1.1 sites
